The results in this text go back to article PMC10484793.

In series [1] the target is T1, C17orf80 (Homo sapiens, UniProt Q9BSJ5 1-609). Kind of series: EMSA. A general note: A gel shift assay detects complexes by their altered migration in electrophoresis.
In series [2] the target is T1, C17orf80. Kind of series: EMSA. This is another data set of the same source.

T1 sequence (Q9BSJ5 whole entry): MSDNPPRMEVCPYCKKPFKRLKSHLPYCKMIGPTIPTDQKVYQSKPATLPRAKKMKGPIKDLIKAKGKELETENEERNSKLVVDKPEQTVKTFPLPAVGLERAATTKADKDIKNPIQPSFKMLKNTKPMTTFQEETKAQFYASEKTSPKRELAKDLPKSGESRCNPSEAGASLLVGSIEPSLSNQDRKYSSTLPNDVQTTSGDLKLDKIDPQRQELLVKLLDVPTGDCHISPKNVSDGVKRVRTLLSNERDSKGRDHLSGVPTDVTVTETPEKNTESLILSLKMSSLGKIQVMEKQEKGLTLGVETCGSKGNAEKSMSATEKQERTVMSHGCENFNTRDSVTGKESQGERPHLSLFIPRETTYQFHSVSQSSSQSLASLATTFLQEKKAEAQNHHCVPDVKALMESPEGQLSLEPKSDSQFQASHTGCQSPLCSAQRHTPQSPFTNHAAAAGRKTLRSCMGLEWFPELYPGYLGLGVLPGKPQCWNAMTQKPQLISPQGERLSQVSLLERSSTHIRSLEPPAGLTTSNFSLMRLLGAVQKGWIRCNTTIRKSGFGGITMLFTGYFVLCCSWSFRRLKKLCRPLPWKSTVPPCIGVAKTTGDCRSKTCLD

B1: mito dsDNA (dsDNA)
DNA 1: TACTCCTCAATTACCCACATAGGATGAATAATAGCAGTTCTACCGTACAA
DNA 2: TTGTACGGTAGAACTGCTATTATTCATCCTATGTGGGTAATTGAGGAGTA
B1 came in with a Kd with C17orf80 [1] of 46 ± 7 nM.

B2: mito ssDNA (ssDNA)
DNA: B1 DNA 1
In the case of B2, the binding result with C17orf80 [2] is listed as “no binding”.

B3: nuc dsDNA (dsDNA)
DNA 1: TTTATTTCTGAGACGGGGTCTTGTGTTGCCCAGGCTGGAGTGTAATGGCA
DNA 2: TGCCATTACACTCCAGCCTGGGCAACACAAGACCCCGTCTCAGAAATAAA
With B3, the affinity in the series with C17orf80 [1], expressed as Kd, was 49 ± 3 nM.

A word on the Kd: it is the concentration at which binding is half-saturated. Lower therefore signals tighter binding.
